As a reminder, the Kd is the concentration at which binding is half-saturated.

Data set [1] addresses taxol-stabilized microtubules of unlabeled porcine brain tubulin (porcine) (UniProt P02550). Nature of the data set: co-sedimentation.
The data set “native gel or EMSA” deals with the molecule itself. Nature of the data set: native gel or EMSA.

B1: SPR2(1-570)-GFP (domain or fragment, Arabidopsis thaliana, UniProt Q9T041 1-570, looked up)
chain: MSTPTTSGSAAKPTRPARSSSLATRSCSNSGSLTSFQAMVELKQKILTSISKLADRDTYQIAVEDLEKTIQSLTPETLPMFLNCLYDSCSDPKPAVKKECLHLLSYVCSLHCDSTAAHLTKIIAQIVKRLKDSDSGVRDACRDTIGALSGIYLKGKEEGTNTGSASLAVGLFVKPLFEAMGEQNKVVQSGASMCMARMVESAASPPVTSFQKLCPRICKLLSNSSFLAKASLLPVVSSLSQVGAIAPQSLESLLESIHDCLGSTDWVTRKAAAETLTALASHSSGLIKEKTDSTITVLETCRFDKIKPVRESVTEALQLWKKISGKYVDGASDDSKLSASEQLGSEKNGEKRSNLADLMKKEASDGSTLSPDSASKGKGCFPEKAVGLLKKKAPVLSDKDFNPEFFQRLERRQSVEVVVPRRCKNNDEEESGLDDLNAMGSSNRLKNTQADDKQVKGRFDGNGSQARTSGDDKAGVVNGKETPGHHAPVSNTDNQSEGSFTSNRGNWSAIQRQLLQLERQQTNLMNMLQEFIGGSHDSMVTLEGRVRGLERIVEDMARDLSISSGRRANL
Take B1: the Kd in data set [1] amounted to 1.3 µM. The binding result in the data set “native gel or EMSA” is given as “binds”.

B2: SPR2 (38-570)-GFP (domain or fragment, Arabidopsis thaliana, UniProt Q9T041 38-570, looked up)
chain: AMVELKQKILTSISKLADRDTYQIAVEDLEKTIQSLTPETLPMFLNCLYDSCSDPKPAVKKECLHLLSYVCSLHCDSTAAHLTKIIAQIVKRLKDSDSGVRDACRDTIGALSGIYLKGKEEGTNTGSASLAVGLFVKPLFEAMGEQNKVVQSGASMCMARMVESAASPPVTSFQKLCPRICKLLSNSSFLAKASLLPVVSSLSQVGAIAPQSLESLLESIHDCLGSTDWVTRKAAAETLTALASHSSGLIKEKTDSTITVLETCRFDKIKPVRESVTEALQLWKKISGKYVDGASDDSKLSASEQLGSEKNGEKRSNLADLMKKEASDGSTLSPDSASKGKGCFPEKAVGLLKKKAPVLSDKDFNPEFFQRLERRQSVEVVVPRRCKNNDEEESGLDDLNAMGSSNRLKNTQADDKQVKGRFDGNGSQARTSGDDKAGVVNGKETPGHHAPVSNTDNQSEGSFTSNRGNWSAIQRQLLQLERQQTNLMNMLQEFIGGSHDSMVTLEGRVRGLERIVEDMARDLSISSGRRANL
Consider B2, for which, in “native gel or EMSA”, the binding result was “binds”.

B3: SPR2(1-500)-GFP (domain or fragment)
chain: MSTPTTSGSAAKPTRPARSSSLATRSCSNSGSLTSFQAMVELKQKILTSISKLADRDTYQIAVEDLEKTIQSLTPETLPMFLNCLYDSCSDPKPAVKKECLHLLSYVCSLHCDSTAAHLTKIIAQIVKRLKDSDSGVRDACRDTIGALSGIYLKGKEEGTNTGSASLAVGLFVKPLFEAMGEQNKVVQSGASMCMARMVESAASPPVTSFQKLCPRICKLLSNSSFLAKASLLPVVSSLSQVGAIAPQSLESLLESIHDCLGSTDWVTRKAAAETLTALASHSSGLIKEKTDSTITVLETCRFDKIKPVRESVTEALQLWKKISGKYVDGASDDSKLSASEQLGSEKNGEKRSNLADLMKKEASDGSTLSPDSASKGKGCFPEKAVGLLKKKAPVLSDKDFNPEFFQRLERRQSVEVVVPRRCKNNDEEESGLDDLNAMGSSNRLKNTQADDKQVKGRFDGNGSQARTSGDDKAGVVNGKETPGHHAPVSNTDNQSEGSF
With B3, the Kd in data set [1] amounted to 17.4 µM.

B4: full-length SPR2-GFP protein (natural protein, Arabidopsis thaliana, UniProt Q9T041 1-864, looked up)
chain: MSTPTTSGSAAKPTRPARSSSLATRSCSNSGSLTSFQAMVELKQKILTSISKLADRDTYQIAVEDLEKTIQSLTPETLPMFLNCLYDSCSDPKPAVKKECLHLLSYVCSLHCDSTAAHLTKIIAQIVKRLKDSDSGVRDACRDTIGALSGIYLKGKEEGTNTGSASLAVGLFVKPLFEAMGEQNKVVQSGASMCMARMVESAASPPVTSFQKLCPRICKLLSNSSFLAKASLLPVVSSLSQVGAIAPQSLESLLESIHDCLGSTDWVTRKAAAETLTALASHSSGLIKEKTDSTITVLETCRFDKIKPVRESVTEALQLWKKISGKYVDGASDDSKLSASEQLGSEKNGEKRSNLADLMKKEASDGSTLSPDSASKGKGCFPEKAVGLLKKKAPVLSDKDFNPEFFQRLERRQSVEVVVPRRCKNNDEEESGLDDLNAMGSSNRLKNTQADDKQVKGRFDGNGSQARTSGDDKAGVVNGKETPGHHAPVSNTDNQSEGSFTSNRGNWSAIQRQLLQLERQQTNLMNMLQEFIGGSHDSMVTLEGRVRGLERIVEDMARDLSISSGRRANLTAGFGKYNSFANYPTGKYNGRAPGERGSQTDGAMRGRMWNSDMADDWFIPPHAASRNGQAGPRRSPRSEQYENEHMGNGRRGWDNKASGTIRFGEGPSARSVWQASKDEATLEAIRVAGEDGAVPRPTRVAVAPEAEAMGDDDNEGQERDPIWVSWSNAMHSLRVGDIDAAYAEVLCAGDQHLVIKLMDKTGPSLDQMSNEIANEALNFISQFLLDHSLYDICLSWSQQLLELVLQDGADTFGVPMELKTEILYNLQDACSTMDPPEDWEGPAPEQLVVQLASVWEIDLQQFDK
Take B4: in “native gel or EMSA”, the binding result is “binds”.

These data come from paper doi:10.1101/2021.10.05.463238 (bioRxiv, 2021).
